{
  "source": "paper PMC9065035",
  "about": "“Structural basis for the synthesis of the core 1 structure by C1GalT1” (Nature Communications, 2022)",
  "binders": {"B1": {"name": "APDT*RP glycopeptide (MUC1 tandem repeat epitope with alpha-GalNAc on Thr) (peptide)", "peptide": "APDT(αGalNAc)RP-NH2", "modifications": "N-terminus assumed", "SMILES": "CC(=O)N[C@H]1[C@@H](O[C@H](C)[C@H](NC(=O)[C@H](CC(=O)O)NC(=O)[C@@H]2CCCN2C(=O)[C@H](C)N)C(=O)N[C@@H](CCCNC(=N)N)C(=O)N2CCC[C@H]2C(N)=O)O[C@H](CO)[C@H](O)[C@@H]1O", "notes": "source: synthetic peptide (Fmoc solid phase, Rink Amide MBHA resin, HPLC)"}, "B2": {"name": "P7 glycopeptide YADT*GPF (GalNAc on Thr) (peptide)", "peptide": "YADT(αGalNAc)GPF-NH2", "notes": "Asp at -1; Tied to the name P7 by the text (Asp at -1; ITC was done with P4 and P7 only besides APDT*RP); Made on Rink Amide MBHA resin, so probably a C-terminal amide (surmised); source: synthetic peptide (solid-phase synthesis, HPLC purified)"}, "B3": {"name": "P4 (PAAT*GPY) glycopeptide (peptide)", "peptide": "PAAT(αGalNAc)GPY-NH2", "notes": "designed acceptor glycopeptide; Made on Rink Amide resin, so a C-terminal amide is to be expected; source: synthetic peptide (solid-phase, Rink Amide MBHA resin, HPLC purified)"}, "B4": {"name": "P7 (YADT*GPF) glycopeptide (peptide)", "peptide": "YADT(αGalNAc)GPF-NH2", "notes": "as for B3"}, "B5": {"name": "P4 glycopeptide PAAT*GPY (GalNAc on Thr) (peptide)", "peptide": "PAAT(αGalNAc)GPY-NH2", "notes": "Tied to the name P4 by the residues that the text names for P4 (Pro1, Ala2, Ala3, Thr4, Gly5, Tyr7); Made on Rink Amide MBHA resin, so probably a C-terminal amide (surmised); source: synthetic peptide (solid-phase synthesis, HPLC purified)"}, "B6": {"name": "DmC1GalT1^S73-Q388 (Drosophila melanogaster C1GalT1, residues S73-Q388) (enzyme)", "chain": "not shown", "modifications": "N-glycans trimmed with Endoglycosidase-H (expressed with kifunensine)", "notes": "C1GalT1 (core 1 synthase) of Drosophila melanogaster, residues S73-Q388; Expressed with the honey bee mellitin secretion signal in front (pFastBac1-mellitin-DmC1GalT1-6His); two molecules in the asymmetric unit arranged as a homodimer; also called truncated version of DmC1GalT1; mellitin-DmC1GalT1-6His; source: High Five insect cells (baculovirus), secreted, purified (His-Trap, Endo-H, MBP-Trap, …)"}, "B7": {"name": "DmC1GalT1^S73-Q388 (Drosophila melanogaster C1GalT1, residues S73-Q388) (enzyme)", "chain": "not shown", "modifications": "N-glycans trimmed with Endo-H", "notes": "C1GalT1 of Drosophila melanogaster, residues S73-Q388; Homodimer by SEC and in the crystal; also called truncated version of DmC1GalT1; DmC1GalT1-His"}},
  "key": {"[1]": {"target": "DmC1GalT1^T43-Q388 Y325A (Drosophila melanogaster, UniProt Q7K237 43-388, Y325A)", "sequence (Q7K237 43-388 Y325A)": "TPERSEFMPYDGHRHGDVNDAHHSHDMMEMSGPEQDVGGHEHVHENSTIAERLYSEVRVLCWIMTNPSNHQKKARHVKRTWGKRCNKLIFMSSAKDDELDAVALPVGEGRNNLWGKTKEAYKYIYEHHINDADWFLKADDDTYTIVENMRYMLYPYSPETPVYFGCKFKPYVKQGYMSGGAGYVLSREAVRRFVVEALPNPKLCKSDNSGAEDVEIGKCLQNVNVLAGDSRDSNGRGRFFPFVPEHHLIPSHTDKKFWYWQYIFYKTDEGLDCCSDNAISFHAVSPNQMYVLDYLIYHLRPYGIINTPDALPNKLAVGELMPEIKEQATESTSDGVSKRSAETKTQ", "assay": "cell-based or functional assay"}, "[2]": {"target": "DmC1GalT1^T43-Q388 R152A (Drosophila melanogaster, UniProt Q7K237 43-388, R152A)", "sequence (Q7K237 43-388 R152A)": "as the sequence (Q7K237 43-388 Y325A) above, with R110A, A283Y counted along it", "assay": "cell-based or functional assay"}, "[3]": {"target": "DmC1GalT1^T43-Q388 Y213A (Drosophila melanogaster, UniProt Q7K237 43-388, Y213A)", "sequence (Q7K237 43-388 Y213A)": "as the sequence (Q7K237 43-388 Y325A) above, with Y171A, A283Y counted along it", "assay": "cell-based or functional assay"}, "[4]": {"target": "B6", "assay": "crystal structure; 15 mg/mL DmC1GalT1^S73-Q388, 5 mM UDP, 2 mM MnCl2, 5 mM APDT*RP; space group P2_(1); 2.40 Å", "conditions": "both partners purified"}, "[5]": {"target": "T1, Drosophila melanogaster C1GalT1, residues T43-Q388 (DmC1GalT1^T43-Q388) (Drosophila melanogaster, UniProt Q7K237 43-388)", "T1 construct": "N-glycosylated when made in HEK293; also called core 1/T-synthase; source: HEK293, transfected (pHLSec), secreted, purified (His-Trap, Superdex 75)", "T1 sequence (Q7K237 43-388)": "as the sequence (Q7K237 43-388 Y325A) above, with A283Y counted along it", "assay": "ITC; 2 mM glycopeptide titrated into 60 uM enzyme; no UDP: 25 mM TRIS pH 7.5, 150 mM NaCl, 1 mM MnCl2; 20 °C; one-site model; duplicate", "conditions": "both partners purified"}, "[6]": {"target": "T1, Drosophila melanogaster C1GalT1, …", "assay": "ITC; 2 mM glycopeptide titrated into the enzyme (60 uM for APDT*RP, 50 uM for P4/P7); excess of UDP: 25 mM TRIS pH 7.5, 150 mM NaCl, 1 mM UDP, 1 mM MnCl2; 20 °C; one-site model; duplicate", "conditions": "both partners purified"}, "[7]": {"target": "T2, DmC1GalT1^T43-Q388 (Drosophila melanogaster C1GalT1, residues T43-Q388) (Drosophila melanogaster)", "T2 construct": "N-glycosylated (lower eukaryotes' C1GalT1 are N-glycosylated); The pHLSec vector (AgeI/KpnI) may leave a few vector residues at both ends (surmise); the SEC was done with the S73-Q388 construct; also called core 1/T-synthase; DmC1GalT1-His; source: HEK293, transfected (pHLSec), secreted, purified (His-Trap, Superdex 75)", "T2 sequence (chain, as listed by the source)": "as the sequence (Q7K237 43-388 Y325A) above, with A283Y counted along it", "assay": "ITC; in the absence of UDP: 2 mM glycopeptide titrated into 60 µM DmC1GalT1^T43-Q388; 20 °C; 25 mM TRIS pH 7.5, 150 mM NaCl, 1 mM MnCl2; one-site model; duplicate", "conditions": "both partners purified"}, "[8]": {"target": "T2, DmC1GalT1^T43-Q388 (Drosophila …)", "assay": "ITC; under an excess of UDP: 2 mM (glyco)peptide titrated into DmC1GalT1^T43-Q388 (60 µM for APDT*RP and APDTRP, 50 µM for P4/P7); 20 °C; 25 mM TRIS pH 7.5, 150 mM NaCl, 1 mM UDP, 1 mM MnCl2; one-site model; duplicate", "conditions": "both partners purified"}, "[9]": {"target": "the molecule itself", "assay": "crystal structure; 15 mg/mL DmC1GalT1^S73-Q388, 5 mM UDP, 2 mM MnCl2, 5 mM APDT*RP; space group P2_(1); 2.40 Å"}, "[10]": {"target": "the molecule itself", "assay": "SEC; size exclusion chromatography of DmC1GalT1^S73-Q388 against protein markers of known molecular weight"}, "[11]": {"target": "the molecule itself", "assay": "crystal structure; DmC1GalT1^S73-Q388 (15 mg/mL) with 5 mM UDP, 2 mM MnCl2 and 5 mM APDT*RP; space group P21; 2.40 Å"}},
  "note": "Ends that are not written are not given here. * marks the point of attachment. αGalNAc = CC(=O)N[C@@H]1[C@@H](O)[C@@H](O)[C@@H](CO)O[C@@H]1*",
  "data": [
    {"binder": "B1", "values": [
      {"measurement": "glycosyltransferase activity relative to WT (UDP-Glo, 500 nM mutant, 500 μM UDP-Gal, 500 μM APDT*RP)", "setting": "[1]", "result": 25, "unit": "fold decrease"},
      {"measurement": "glycosyltransferase activity relative to WT (UDP-Glo, 500 nM mutant, 500 μM UDP-Gal, 500 μM APDT*RP)", "setting": "[2]", "result": 15, "unit": "fold decrease"},
      {"measurement": "glycosyltransferase activity relative to WT (UDP-Glo, 500 nM mutant, 500 μM UDP-Gal, 500 μM APDT*RP)", "setting": "[3]", "result": 25, "unit": "fold decrease"},
      {"measurement": "binding result", "setting": "[4]", "result": "binds"}
    ]},
    {"binder": "B2", "values": [
      {"measurement": "Kd", "setting": "[5]", "result": 37.1, "unit": "µM"},
      {"measurement": "Kd", "setting": "[6]", "result": 60, "unit": "µM"}
    ]},
    {"binder": "B3", "values": [
      {"measurement": "Kd", "setting": "[7]", "result": 41, "unit": "µM"},
      {"measurement": "stoichiometry N", "setting": "[7]", "result": 0.98},
      {"measurement": "Kd", "setting": "[8]", "result": 60.4, "unit": "µM"},
      {"measurement": "stoichiometry N", "setting": "[8]", "result": 0.88}
    ]},
    {"binder": "B4", "values": [
      {"measurement": "Kd", "setting": "[7]", "result": 37.1, "unit": "µM"},
      {"measurement": "stoichiometry N", "setting": "[7]", "result": 0.65},
      {"measurement": "Kd", "setting": "[8]", "result": 60, "unit": "µM"},
      {"measurement": "stoichiometry N", "setting": "[8]", "result": 1.5}
    ]},
    {"binder": "B5", "values": [
      {"measurement": "Kd", "setting": "[5]", "result": 41, "unit": "µM"},
      {"measurement": "Kd", "setting": "[6]", "result": 60.3, "unit": "µM"}
    ]},
    {"binder": "B6", "values": [
      {"measurement": "stoichiometry N", "setting": "[9]", "result": 2}
    ]},
    {"binder": "B7", "values": [
      {"measurement": "stoichiometry N", "setting": "[10]", "result": 2},
      {"measurement": "stoichiometry N", "setting": "[11]", "result": 2}
    ]}
  ]
}
